Target: T1, PD1 (Programmed Death 1) (human, UniProt Q15116 25-288)
T1 construct: whole, on cells
Assay: flow cytometry on T cells electroporated with PD1 and minibody mRNA; biotinylated goat anti-human IgG1 and streptavidin-PE
Description: FIG. 8 is a panel of images and graphs showing detection of PD1 minibody or PD1-PDL1 bispecific minibody bound on T cells. T cells were electroporated with mRNA (PD1, PD1 and PD1 minibody, and PD1 and PD1-PDL1 bispecific minibody) as specified. The T cells were stained with biotinylated goat anti-human IgG1 and then streptavidin-PE. Biotin anti-human IgG1 specifically detected PD1 minibody or PD1-PDL1 bispecific minibody […] when the cells expressed PD1. PD1 expressed on the T cell acted as an anchor for the secreted antibodies to bind that would otherwise not interact with the T cell.
Flow Cytometry Analysis. Tumor cells were cultured in the absence or presence of IFN-γ (R&D systems, Minneapolis, Minn.) at 20 ng/m1 for 24 hrs before the cells were harvested for staining with PDL1-PE (BioLegend). Live cells were gated on the live cell population by forward scatter/side scatter (FSC/SSC) and then PDL-1 positivity by PE expression. K562 cells and K562 PDL1/CD19 cells were stained with PDL1-PE (BioLegend, San Diego, Calif.) and CD19-PacBlue (Life Technologies, Carlsbad, Calif.). […]
FIG. 8 is a panel of images and graphs showing detection of PD1 minibody or PD1-PDL1 bispecific minibody on T cells. […] Biotin anti-human IgG1 specifically detected PD1 minibody or PD1-PDL1 bispecific minibody when the cells expressed PD1. […]

T1 sequence (Q15116 25-288): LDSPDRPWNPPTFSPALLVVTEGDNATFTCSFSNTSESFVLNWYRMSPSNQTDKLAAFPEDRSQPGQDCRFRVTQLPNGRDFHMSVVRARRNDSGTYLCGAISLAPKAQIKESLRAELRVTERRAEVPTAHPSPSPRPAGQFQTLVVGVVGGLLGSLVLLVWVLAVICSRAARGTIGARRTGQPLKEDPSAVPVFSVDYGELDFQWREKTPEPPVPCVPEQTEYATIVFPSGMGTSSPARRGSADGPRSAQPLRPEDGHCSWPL

B1: PD1 minibody (other)
chain: QVQLQESGPGVVKPSGTLSLTCAISGGSIGSGGSIRSTRWWSWVRQSPGKGLEWIGEIYHSGSTNYNPSLKSRVTISLDKSRNHFSLRLNSVTAADTAVYYCARQDYGDSGDWYFDLWGKGTMVTVSSGGGSGGGSGGGSGGGSNFMLTQPHSVSESPGKTVTISCTRSSGSIASNSVQWYQQRPGSSPTTVIYEDNQRPSGVPDRFSGSIDSSSNSASLTVSGLKTEDEADYYCQSSDSSAVVFGSGTKLTVLEPKSCDKTHTCPPCGGGSSGGGSGGQPREPQVYTLPPSRDELTKNQVSLTCLVKGFYPSDIAVEWESNGQPENNYKTTPPVLDSDGSFFLYSKLTVDKSRWQQGNVFSCSVMHEALHNHYTQKSLSLSPGK
notes: Minibody: single chain VH-linker-VL-hinge-CH3, secreted by T cells electroporated with its mRNA; Variable regions are from PD1-17 of U.S. Pat. No. 7,488,802; also called PD1 minbody
  binding result: binds
